Measured values taken from US7700101B2, “Reagents and method for modulating Dkk-mediated interactions” (Wyeth, priority 2001, dated 2010).
“Also recorded” adds a separate entry of the source.

Assays:
[1] = tested on: Wnt pathway (TCF-luciferase reporter); test: TCF-luciferase assay of LRP5 variants in U2OS cells; type: cell-based, human; conditions: for susceptibility to modulation by Dkk / activation of TCF-luciferase reporter construct: U2OS cells; for susceptibility to modulation by Dkk: in the presence of Dkk1 and Wnt1; for activation of TCF-luciferase reporter construct: in the presence of Wnt
Excerpt: Site-directed mutants of LRP5 were generated in the full-length human LRP5 cDNA using the QuikChange XL-Site-Directed Mutagenesis Kit (catalog #200516, Stratagene, La Jolla, Calif.) following the manufacturers protocol. The mutant sequences were introduced using complementary synthetic oligonucleotides:
All constructs were sequence verified to ensure that only the engineered modification was present in the gene. Once verified, each variant was functionally evaluated in the TCF-luciferase assay in U2OS cells (essentially as described in Example 7. Other functional evaluations could also be performed, such as the Xenopus embryo assay (essentially as described in Example 6), or other assays to evaluate Wnt signaling, Dkk modulation, or anabolic bone effect. Binding of these mutants to Dkk, LRP-interacting proteins, Dkk-interacting proteins, or peptide aptamers to any of the preceding could also be investigated in a variety of ways such as in a two-hybrid system (such as in yeast as described in this application), or other methods.
U2OS human osteosarcoma cells were also utilized. U2OS cells (ATCC) were seeded into 96-well plates at 30,000 cells per well in 200 ul of the growth media (McCoy's 5A) containing 10% (v/v) heat-inactivated FBS, 1X penicillin streptomycin, and 1×Glutamax-1, and incubated overnight at 37° C. The following day, the media was replaced with OptiMEM (Invitroge) and cells were transfected using […] (as described by the manufacturer, Invitrogen) with. 0.005 μg/well of LRP5, HBM, LRP6 or contoI plasmid DNA (empty vector pcDNA3.1) and either Wnt1 (0.0025 ug/well) or Wnt3a (0.0025 ug/well) plasmid DNA. In addition, the 16x-(AS) TCF-TK-firefly-luciferase (Ramesh Bhat, WHRI, Wyeth) and control TK-renilla luciferase (Promega Corp.) were co-transfected at 0.3 ug/well and 0.06 ug/well respectively in all experiments. […] In other experiments, cells were co-transfected with 0.005 μg/well of LRP5, 0.0025 ug/well of Wnt1 or Wnt3 a (using […] of a control pcDNA3.1) with LRP5-interacting aptamers (0.05 ug/well). Cells were cultured for an additional 18-20 hours at 37° C. Culture medium was removed. Cells were then lysed with 100 μl/well of 1X Passive Lysis Buffer (PLB) of Dual Luciferase Reagent kit (DLR-kit-Promega Corp.) 20 μl of the lysates were combined with LARII reagent of DLR-kit and assayed for TCF-firefly luciferase signal in Top Count (Packard) instrument. After measuring the Firefly readings, 100 μl of the “Stop and Glo” reagent of DLR kit that contains a quencher and a substrate for renilla luciferase was added into each well. Immediately the renilla luciferase reading was measured using the Top Count (Packard) Instrument. The ratios of the TCF-firefly luciferase to control renilla readings were calculated for each well and the mean ratio of triplicate or more wells was expressed in all data.

HBM = target: T1, HBM (Homo sapiens, UniProt O75197, G171V); test: TCF-luciferase assay in HOB-03-CE6 cells, HBM; type: cell-based; conditions: Wnt3a, FIG. 15
T1 construct: Full length Zmax/LRP5 and HBM ORF cDNA; expressed in transfected cells; host or cells: HOB-03-CE6 osteoblastic cells; U2OS osteosarcoma cells; HEK293
T1 sequence (O75197 32-1615 G171V): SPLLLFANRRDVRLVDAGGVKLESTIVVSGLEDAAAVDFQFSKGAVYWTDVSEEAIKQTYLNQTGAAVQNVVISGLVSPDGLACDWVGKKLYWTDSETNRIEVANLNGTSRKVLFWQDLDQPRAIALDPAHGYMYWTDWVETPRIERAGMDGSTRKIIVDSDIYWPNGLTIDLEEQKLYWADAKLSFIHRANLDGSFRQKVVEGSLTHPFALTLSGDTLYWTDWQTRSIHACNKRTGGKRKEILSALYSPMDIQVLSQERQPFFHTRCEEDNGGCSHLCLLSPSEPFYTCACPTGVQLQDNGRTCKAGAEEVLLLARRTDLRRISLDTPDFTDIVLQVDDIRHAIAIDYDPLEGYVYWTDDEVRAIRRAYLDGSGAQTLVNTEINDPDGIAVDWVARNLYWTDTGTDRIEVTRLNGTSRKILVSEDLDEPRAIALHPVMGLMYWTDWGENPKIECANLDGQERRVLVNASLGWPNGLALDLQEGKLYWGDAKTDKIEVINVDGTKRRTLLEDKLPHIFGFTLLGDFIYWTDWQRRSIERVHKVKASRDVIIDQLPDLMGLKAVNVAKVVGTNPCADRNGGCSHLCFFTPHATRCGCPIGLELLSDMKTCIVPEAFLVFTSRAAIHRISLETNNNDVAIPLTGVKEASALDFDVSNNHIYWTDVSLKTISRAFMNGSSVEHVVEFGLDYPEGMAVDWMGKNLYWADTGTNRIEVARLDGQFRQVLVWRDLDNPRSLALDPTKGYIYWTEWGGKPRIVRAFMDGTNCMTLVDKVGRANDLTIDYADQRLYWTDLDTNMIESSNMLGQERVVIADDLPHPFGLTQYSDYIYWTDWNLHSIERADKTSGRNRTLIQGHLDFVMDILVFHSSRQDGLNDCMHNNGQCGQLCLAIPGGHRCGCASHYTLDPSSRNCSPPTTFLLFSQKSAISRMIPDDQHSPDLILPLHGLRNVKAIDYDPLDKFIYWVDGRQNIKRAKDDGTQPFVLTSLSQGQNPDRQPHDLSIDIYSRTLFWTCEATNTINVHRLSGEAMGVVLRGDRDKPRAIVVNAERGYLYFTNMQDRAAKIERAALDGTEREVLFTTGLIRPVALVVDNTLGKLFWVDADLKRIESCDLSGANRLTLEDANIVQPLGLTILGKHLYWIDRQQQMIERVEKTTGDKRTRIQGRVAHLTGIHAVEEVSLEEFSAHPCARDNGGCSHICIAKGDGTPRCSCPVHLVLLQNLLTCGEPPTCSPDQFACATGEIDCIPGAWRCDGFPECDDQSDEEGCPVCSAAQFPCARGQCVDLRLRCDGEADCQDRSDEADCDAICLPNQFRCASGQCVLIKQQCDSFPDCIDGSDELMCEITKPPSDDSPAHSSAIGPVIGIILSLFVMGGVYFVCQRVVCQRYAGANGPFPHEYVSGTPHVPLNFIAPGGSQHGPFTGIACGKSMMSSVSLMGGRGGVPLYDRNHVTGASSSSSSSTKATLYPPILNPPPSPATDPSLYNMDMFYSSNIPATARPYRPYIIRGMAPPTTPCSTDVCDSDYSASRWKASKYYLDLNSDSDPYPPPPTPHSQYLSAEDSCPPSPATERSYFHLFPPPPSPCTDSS
Method: (§1) HOB-03-CE6 osteoblastic cells developed by Wyeth Ayerst (Philadelphia, Pa.) were seeded into 24-well plates at 150,000 cells per well in 1 ml of the growth media (D-MEM/F12 phenol red-free) containing 10% (v/v) heat-inactivated FBS, 1×penicillin streptomycin, and 1X Glutamax-1, and incubated overnight at 34° C. The following day, the cells were transfected using Lipofectamine 2000® (as described by the manufacturer, Invitrogen) in OptiMEM (Invitrogen) with 0.35 μg/well of LRP5, HBM, or control plasmid DNA (empty vector pcDNA3.1) and either Wnt1 or Wnt3 a plasmid DNA. […] All wells were transfected with 0.025 μg/well of CMV beta-galactosidase plasmid DNA and 0.35 μg/well 16X TCF(ASyluciferase reporter DNA (developed by Ramesh Bhat, Wyeth-Ayerst (Philadelphia, Pa.)). After 4 hours of incubation, the cells were rinsed and 1 ml of fresh growth media was added to each well. The cells were cultured overnight at 34° C., followed by a wash and a change of media. Cells were cultured for an additional 18-24 hours at 37° C. Cells were then lysed with 50 μl/well of 1X lysis buffer. The extracts were assayed for beta-galactosidase activity (Galacto Reaction Buffer Diluent & Light Emission Accelerator, Tropix) using 5 μl extract+50 μl beta-galactosidase diluent and luciferase activity (Luciferase Assay Reagent, Promega) using 20 μl extract.

LRP6 [2] = target: T2, LRP6 (Homo sapiens, UniProt O75581); test: TCF-luciferase assay in HOB-03-CE6 cells, LRP6; type: cell-based; parameters: Full length LRP6 was isolated from the pED6dpc4 vector; expressed in transfected cells; host or cells: HOB-03-CE6 osteoblastic cells; U2OS osteosarcoma cells; HEK293
Target sequence in this assay (O75581 20-1613): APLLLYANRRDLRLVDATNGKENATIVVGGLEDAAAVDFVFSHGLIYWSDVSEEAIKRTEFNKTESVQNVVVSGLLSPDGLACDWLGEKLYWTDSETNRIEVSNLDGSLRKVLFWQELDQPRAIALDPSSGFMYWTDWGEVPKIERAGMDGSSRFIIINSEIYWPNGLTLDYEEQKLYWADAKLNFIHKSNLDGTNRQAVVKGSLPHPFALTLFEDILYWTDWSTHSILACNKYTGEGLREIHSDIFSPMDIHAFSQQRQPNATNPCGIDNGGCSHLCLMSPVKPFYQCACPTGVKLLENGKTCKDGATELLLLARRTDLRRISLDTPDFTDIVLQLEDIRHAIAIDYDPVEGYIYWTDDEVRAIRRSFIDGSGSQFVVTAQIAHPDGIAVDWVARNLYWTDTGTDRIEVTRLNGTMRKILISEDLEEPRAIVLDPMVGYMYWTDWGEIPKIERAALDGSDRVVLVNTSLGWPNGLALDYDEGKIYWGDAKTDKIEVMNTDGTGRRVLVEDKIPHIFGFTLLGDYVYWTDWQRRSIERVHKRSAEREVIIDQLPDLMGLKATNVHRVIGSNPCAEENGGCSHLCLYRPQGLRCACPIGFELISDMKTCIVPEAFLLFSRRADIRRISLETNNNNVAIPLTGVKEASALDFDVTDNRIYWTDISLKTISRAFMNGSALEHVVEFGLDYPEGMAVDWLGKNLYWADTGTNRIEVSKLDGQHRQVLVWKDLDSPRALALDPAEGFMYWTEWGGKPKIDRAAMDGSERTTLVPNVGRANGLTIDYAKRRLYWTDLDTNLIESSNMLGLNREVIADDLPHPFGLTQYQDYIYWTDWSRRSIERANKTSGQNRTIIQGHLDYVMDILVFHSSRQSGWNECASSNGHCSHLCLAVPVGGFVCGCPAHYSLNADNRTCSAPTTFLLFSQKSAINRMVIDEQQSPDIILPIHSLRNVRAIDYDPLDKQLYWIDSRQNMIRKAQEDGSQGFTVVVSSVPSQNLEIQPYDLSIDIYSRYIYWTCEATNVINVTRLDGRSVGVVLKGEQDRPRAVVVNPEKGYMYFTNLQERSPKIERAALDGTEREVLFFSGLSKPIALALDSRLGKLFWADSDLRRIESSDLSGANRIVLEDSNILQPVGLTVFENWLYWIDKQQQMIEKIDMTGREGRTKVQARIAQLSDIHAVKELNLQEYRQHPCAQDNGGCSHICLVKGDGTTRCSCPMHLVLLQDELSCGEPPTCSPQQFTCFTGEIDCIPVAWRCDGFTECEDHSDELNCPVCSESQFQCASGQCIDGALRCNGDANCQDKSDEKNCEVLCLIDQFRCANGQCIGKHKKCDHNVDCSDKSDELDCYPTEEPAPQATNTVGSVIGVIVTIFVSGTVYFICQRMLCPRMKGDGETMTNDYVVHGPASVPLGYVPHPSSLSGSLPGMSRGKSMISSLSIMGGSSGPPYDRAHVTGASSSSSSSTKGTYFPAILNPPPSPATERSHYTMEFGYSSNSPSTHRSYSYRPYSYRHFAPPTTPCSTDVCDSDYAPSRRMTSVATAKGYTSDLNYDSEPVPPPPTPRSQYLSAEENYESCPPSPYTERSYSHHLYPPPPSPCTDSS

LRP6 [3] = target: T2, LRP6; conditions: cited from earlier work
Target sequence in this assay (O75581 20-1613, species assumed): as the sequence (O75581 20-1613) above

LRP5 = target: T3, LRP5 (Homo sapiens, UniProt O75197); test: TCF-luciferase assay in HOB-03-CE6 cells, LRP5; type: cell-based; conditions: Wnt3a, FIG. 15
T3 construct: Site-directed mutants of LRP5 were generated in the full-length human LRP5 cDNA; expressed in transfected cells; host or cells: HOB-03-CE6 osteoblastic cells; U2OS osteosarcoma cells; HEK293
T3 sequence (O75197 32-1615): as the sequence (O75197 32-1615 G171V) above, with V140G counted along it
Method: as §1, with “DNA. Similar experiments were performed with LRP6 plasmid DNA (0.35 μg/well) or a control pEDdpc4 empty vector.” for “DNA.”

endogenous LRP5/6 = test: Cell-based TCF reporter high-throughput assay, endogenous LRP5/6; parameters: species or system human; conditions: U2OS cells
Excerpt: To develop a high throughput assay, the TCF-luciferase assay described in Example 7 was modified utilizing low level expression of endogenous LRP5/6 in U2OS and HEK293 cells. […] Using U2OS (human osteosarcoma) and HEK293 (ATCC) cells, the TCF-luciferase and tk-Renilla reporter element constructs were co-transfected along with Wnt3a/1 and Dkk.

canonical Wnt signaling = conditions: Semenov et al.; cited from earlier work
LRP5 LBD = test: Yeast-2 hybrid interaction trap LRP5 LBD-LexA / Gal4AD-Dkk; type: binding; conditions: FIG. 18
Sequence of LRP5 LBD (as listed by the source): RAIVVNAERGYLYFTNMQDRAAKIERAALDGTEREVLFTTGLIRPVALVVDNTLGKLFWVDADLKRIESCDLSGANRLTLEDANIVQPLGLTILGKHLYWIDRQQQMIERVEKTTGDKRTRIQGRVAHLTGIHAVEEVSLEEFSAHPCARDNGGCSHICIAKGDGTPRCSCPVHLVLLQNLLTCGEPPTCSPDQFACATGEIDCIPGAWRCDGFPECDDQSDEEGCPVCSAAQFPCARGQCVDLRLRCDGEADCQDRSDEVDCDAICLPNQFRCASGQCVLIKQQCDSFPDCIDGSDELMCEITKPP
Excerpt: Small molecule inhibitors (or partial inhibitors) of the Dkk-LRP interaction may be an excellent osteogenic therapeutic. One way to investigate this important protein-protein interaction is using Y2H techniques substantially as described above and as is well known in the art. […] This interaction is quantitated using a reporter element known in the art, e.g., LacZ or luciferase, which is only activated when bait and prey interact. The Y2H assay is used to screen for compounds which modulate the LRP-Dkk interaction. Such a modulation would be visualized by a reduction in reporter element activation signifying a weaker or disrupted interaction, or by an enhancement of the reporter element activation signifying a stronger interaction. Thus, the Y2H assay can be used as a high-throughput screening technique to identify compounds which disrupt or enhance Dkk interaction with LRP5/LRP6/HBM, which may serve as potential therapeutics.
For example, the Interaction Trap methodology can be used as follows. […] With the LRP5LBD-LexA bait and the Gal4AD-Dkk prey, over a 20-fold activation of a lacZ reporter (under the control of a single LexA operator) was detected over the background. […] As a result, small molecules may be identified that modulate this interaction between LRP and Dkk.

A214V: site-directed variant of human LRP5, position equivalent to 171 in blade 5
HBM effect / HBM activity [1]: demonstrated HBM activity

G171F: site-directed variant of human LRP5 in propeller 1, introduces a ringed side-chain
HBM effect / HBM activity [1]: results in an HBM effect; also recorded: demonstrated HBM activity | susceptibility to modulation by Dkk [1]: less susceptible than LRP5 | activation of TCF-luciferase reporter construct [1]: greater activation of the Wnt pathway than LRP5; also recorded: able to activate the TCF-luciferase reporter construct

G171K: site-directed variant of human LRP5, introduces a charged side-chain
HBM effect / HBM activity [1]: demonstrated HBM activity

G171Q: site-directed variant of human LRP5, introduces the propeller 4 residue
HBM effect / HBM activity [1]: demonstrated HBM activity

M282V: site-directed variant of human LRP5, accessible interior position in blade 1
HBM effect / HBM activity [1]: results in an HBM-effect; also recorded: demonstrated HBM activity | susceptibility to modulation by Dkk [1]: less susceptible than LRP5 | activation of TCF-luciferase reporter construct [1]: activation of the Wnt pathway; also recorded: able to activate the TCF-luciferase reporter construct

B1: Dkk-2: human Dickkopf-2, Dkk family member, full length cDNA (protein, UniProt Q9UBU2 1-259, looked up)
chain: MAALMRSKDSSCCLLLLAAVLMVESSQIGSSRAKLNSIKSSLGGETPGQAANRSAGMYQGLAFGGSKKGKNLGQAYPCSSDKECEVGRYCHSPHQGSSACMVCRRKKKRCHRDGMCCPSTRCNNGICIPVTESILTPHIPALDGTRHRDRNHGHYSNHDLGWQNLGRPHTKMSHIKGHEGDPCLRSSDCIEGFCCARHFWTKICKPVLHQGEVCTKQRKKGSHGLEIFQRCDCAKGLSCKVWKDATYSSKARLHVCQKI
modifications: full-length
notes: human Dickkopf-2, Dkk family member, full length cDNA
HBM/Wnt3a mediated TCF-luciferase activity (HBM): able to antagonize the TCF-luciferase activity | LRP6/Wnt1 mediated TCF-luciferase activity (LRP6 [2]; Wnt1, FIG. 14): had no effect | LRP6/Wnt3a mediated TCF-luciferase activity (LRP6 [2]; Wnt3a, FIG. 15): able to antagonize LRP6/Wnt3a mediated TCF-luciferase activity | Kd (LRP6 [3]; Mao et al., classical biochemical ligand-receptor studies): 0.73 nM | LRP5/Wnt3a mediated TCF-luciferase activity (LRP5): able to antagonize the TCF-luciferase activity

B2: Dkk-1-AP: Dkk-1 modified with alkaline phosphatase (protein)
chain: TLNSVLNSNAIKNLPPPLGGAAGHPGSAVSAAPGILYPGGNKYQTIDNYQPYPCAEDEECGTDEYCASPTRGGDAGVQICLACRKRRKRCMRHAMCCPGNYCKNGICVSSDQNHFRGEIEETITESFGNDHSTLDGYSRRTTLSSKMYHTKGQEGSVCLRSSDCASGLCCARHFWSKICKPVLKEGQVCTKHRRKGSHGLEIFQRCYCGEGLSCRIQKDHHQASNSSRLHTCQRH
modifications: left off: large carriers
notes: Dkk-1 modified with alkaline phosphatase
modulation of TCF signal without Wnt DNA transfection (endogenous LRP5/6; no Wnt3a/Wnt1 transfection, FIG. 21): can be modulated

B3: Dkk-1 mutant (C220A): Dkk-1 mutant where cysteine 220 was changed to alanine (protein)
chain: TLNSVLNSNAIKNLPPPLGGAAGHPGSAVSAAPGILYPGGNKYQTIDNYQPYPCAEDEECGTDEYCASPTRGGDAGVQICLACRKRRKRCMRHAMCCPGNYCKNGICVSSDQNHFRGEIEETITESFGNDHSTLDGYSRRTTLSSKMYHTKGQEGSVCLRSSDCASGLCCARHFWSKICKPVLKEGQVATKHRRKGSHGLEIFQRCYCGEGLSCRIQKDHHQASNSSRLHTCQRH
repression of Wnt signaling (canonical Wnt signaling): unable to repress Wnt signaling | interaction with LRP5 in yeast (LRP5 LBD): interaction was reduced | interaction with LRP5 in yeast (LRP5 LBD; listed as mutant Dkk-1 (C220A)): unable to bind to LRP5 | LRP6 binding (LRP6 [3]; Semenov et al.): abolished LRP6 binding | repression of Wnt3a-mediated TCF reporter signaling (endogenous LRP5/6; Wnt3a, FIG. 19): lack of TCF-reporter inhibition
